# B1: Human FANCL URD-RING (109–375) hydrophobic patch mutant L248A, F252A, L254A, I265A (domain or fragment)
# chain: QFYSSLIEEIGTLGWDKLVYADTCFSTIKLKAEDASGREHLITLKLKAKYPAESPDYFVDFPVPFCASWTPQSSLISIYSQFLAAIESLKAFWDVMDEIDEKTWVLEPEKPPRSATARRIALGNNVSINIEVDPRHPTMAPECAFAGADHVVKPLGAKLSRNIHLWDPENSVLQNLKDVLEIDFPARAILEKSDFTMDCGICYAYQLDGTIPDQVCDNSQCGQPFHQICLYEWLRGLLTSRQSFNIIFGECPYCSKPITLKMSGRKH
# Biological target: Xenopus laevis FANCD2, 6xHis-tagged (Xenopus laevis)
binder,measurement,value
B1,"in vitro FANCD2 monoubiquitination (Ube1, Ube2T, FANCL URD-RING, fluorescently labelled ubiquitin, 10 min at 30°C), against WT FANCL",47 % of WT

# — paper PMC7273913
